Results from the Human Domainome abundance scans (Beltran et al. 2025).
± gives the uncertainty stated by the source.

B1: Endonuclease CUE2, residues 9 to 47; numbered along this chain, P36075 (parent)
chain: HESKLSILMDMFPAISKSKLQVHLLENNNDLDLTIGLLL
B2: Membrane-associated guanylate kinase, WW and PDZ domain-containing protein 2, residues 601 to 682; numbered along this chain, Q86UL8 (parent)
chain: AELMTLTIVKGAQGFGFTIADSPTGQRVKQILDIQGCPGLCEGDLIVEINQQNVQNLSHTEVVDILKDCPIGSETSLIIHRG

Variants of: B1
Experiment: abundance fitness (aPCA) (normalised: wild type 0, dead -1); higher = more abundant; growth selection in yeast, the domain comes from the species named
Conditions: Saccharomyces cerevisiae (strain ATCC 204508 / S288c)

Variant	abundance fitness
HESKLMILMDMFPAISKSKLQVHLLENNNDLDLTIGLLL	-0.221 ± 0.09
HESKLSILMDMFPAISKSKLQVHLLENNNDLDLTIGWLL	-0.128 ± 0.047
HESKLSILMDMFPAISKSKLQVHLLENNNDLDLTIGSLL	0.026 ± 0.04
DESKLSILMDMFPAISKSKLQVHLLENNNDLDLTIGLLL	0.064 ± 0.36
HESKLSILMDMFPAISKSKLQVHLLENNNDLDLTIWLLL	-0.452 ± 0.055
HESKLSILMDMFPAISKSKLQVHLLENNNDLDLTISLLL	0.092 ± 0.042
HESKLSILMDMFPAISKSKLQCHLLENNNDLDLTIGLLL	0.119 ± 0.082
HWSKLSILMDMFPAISKSKLQVHLLENNNDLDLTIGLLL	-0.349 ± 0.068
HESKLSILSDMFPAISKSKLQVHLLENNNDLDLTIGLLL	-0.011 ± 0.042
HESKLSILMDMFPAISKLKLQVHLLENNNDLDLTIGLLL	-0.103 ± 0.048
HESKLSILMDMFPAISKFKLQVHLLENNNDLDLTIGLLL	0.056 ± 0.094
HESKLSILMDMFPAISKSKWQVHLLENNNDLDLTIGLLL	-0.613 ± 0.058
HESKLSILMDMFPAISKSNLQVHLLENNNDLDLTIGLLL	0.063 ± 0.079
HESKLSILMDMFPAISKSKLQVHLLENNNTLDLTIGLLL	-0.813 ± 0.17
HESKLSILMDMFPAISKSKLQVHYLENNNDLDLTIGLLL	-0.57 ± 0.4
HESKLSILMDMFPAISKSKLQVHMLENNNDLDLTIGLLL	-0.31 ± 0.1
HESKLSILMDMFPMISKSKLQVHLLENNNDLDLTIGLLL	-0.133 ± 0.061
HESKLSILMDGFPAISKSKLQVHLLENNNDLDLTIGLLL	-0.746 ± 0.074
HESKLSILMDLFPAISKSKLQVHLLENNNDLDLTIGLLL	-0.184 ± 0.083
HESKLSILMDMFPAINKSKLQVHLLENNNDLDLTIGLLL	-0.171 ± 0.074
HECKLSILMDMFPAISKSKLQVHLLENNNDLDLTIGLLL	-0.146 ± 0.38

Variant	abundance fitness
HELKLSILMDMFPAISKSKLQVHLLENNNDLDLTIGLLL	-0.184 ± 0.048
HESKLSILMDMFPAISKSKLPVHLLENNNDLDLTIGLLL	-1.19 ± 0.42
HESKLSILMDMFPAISKSKLKVHLLENNNDLDLTIGLLL	-0.094 ± 0.047
HESKLSILMDMFPAISFSKLQVHLLENNNDLDLTIGLLL	-0.343 ± 0.069
HESKLSILMDMFPAISKSKLQVHLLENNNDLDLGIGLLL	-0.632 ± 0.059
HESKLSILMDMFPAISKSKLQVHLLENNNDLDLCIGLLL	-0.091 ± 0.06
HESKLSILMDMFPAISKSKLQVHLLENNNDLDLAIGLLL	-0.092 ± 0.036
HESKLSILMDMFPAISKSKLQVHLLENNNDLDLEIGLLL	-0.903 ± 0.11
HESKLSILMDMFPAISKSKLQVHLLENNNDLDLNIGLLL	-0.296 ± 0.45
HESKLSILMDMFPAISKSKLQVPLLENNNDLDLTIGLLL	-0.622 ± 0.11
HESKLSILMDMFPAISKSKLQVHLLENNNDQDLTIGLLL	-0.483 ± 0.077
HESKLSGLMDMFPAISKSKLQVHLLENNNDLDLTIGLLL	-0.544 ± 0.039
HESKLSILMDMEPAISKSKLQVHLLENNNDLDLTIGLLL	-0.884 ± 0.12
HESVLSILMDMFPAISKSKLQVHLLENNNDLDLTIGLLL	-0.37 ± 0.047
HESKLSILMDMFPAGSKSKLQVHLLENNNDLDLTIGLLL	-0.735 ± 0.055
HESKLSILMDMFPAISKSKLQVHLLENNNDLDQTIGLLL	-0.068 ± 0.062
HESKLSILMDMFPAISKSKLQVHLLENNNDLTLTIGLLL	-0.183 ± 0.052
HESKLSILMDMFPAISKSKLQVHLLENNNDLDLTWGLLL	-0.483 ± 0.071
HESKLSIKMDMFPAISKSKLQVHLLENNNDLDLTIGLLL	-0.968 ± 0.15
HESKLSILMDMFPAISKSKLQVHLLENNNDLDLTIGLCL	-0.116 ± 0.064

Variants of: B2
Experiment: as above
Conditions: Homo sapiens

Variant	abundance fitness
E2T	-0.034 ± 0.038
E2Y	-0.094 ± 0.064
E2I	-0.139 ± 0.065
E2L	-0.131 ± 0.035
E2G	-0.049 ± 0.034
E2H	-0.113 ± 0.053
E2Q	-0.066 ± 0.042
E2F	-0.113 ± 0.059
E2S	-0.061 ± 0.034
E2A	-0.032 ± 0.034
E2V	-0.077 ± 0.038
E2K	-0.093 ± 0.046
E2W	-0.214 ± 0.046
E2C	-0.039 ± 0.054
E2N	0.009 ± 0.063
E2R	-0.098 ± 0.032
E2M	-0.001 ± 0.044
E2P	-0.205 ± 0.043
G11T	-0.015 ± 0.052
G11I	-0.116 ± 0.062
G11N	0.017 ± 0.098
G11S	-0.023 ± 0.041
G11D	0.01 ± 0.061
G11K	-0.09 ± 0.058
G11E	-0.118 ± 0.057
G11Q	-0.119 ± 0.059

Variant	abundance fitness
G11L	-0.104 ± 0.039
G11V	0.027 ± 0.047
G11A	0.018 ± 0.046
G11P	0.03 ± 0.056
G11R	-0.094 ± 0.038
G11H	-0.142 ± 0.13
G11C	-0.146 ± 0.068
G11W	-0.223 ± 0.054
G11M	-0.095 ± 0.062
G11Y	-0.124 ± 0.082
G11F	-0.114 ± 0.1
I8F	0.046 ± 0.074
I8Y	-0.012 ± 0.068
I8L	0.036 ± 0.036
I8R	-0.397 ± 0.033
I8P	-0.09 ± 0.046
I8W	-0.063 ± 0.038
I8D	-1.07 ± 0.12
I8G	-0.084 ± 0.027
I8Q	-0.08 ± 0.043
I8S	-0.059 ± 0.037
I8N	-0.282 ± 0.077
I8H	-0.113 ± 0.078
I8C	-0.008 ± 0.051
I8T	0.042 ± 0.051
I8E	-0.52 ± 0.058

Variant	abundance fitness
I8M	-0.053 ± 0.053
I8V	-0.002 ± 0.033
I8A	-0.021 ± 0.038
I8K	-0.261 ± 0.056
G14C	-0.11 ± 0.038
G14D	0.07 ± 0.046
G14A	-0.152 ± 0.036
Q13G	0 ± 0.036
Q13E	0.016 ± 0.046
Q13W	-0.101 ± 0.044
Q13C	-0.06 ± 0.052
Q13I	-0.218 ± 0.05
Q13Y	-0.096 ± 0.057
Q13R	-0.017 ± 0.033
Q13F	-0.084 ± 0.043
Q13A	-0.037 ± 0.039
Q13D	-0.062 ± 0.047
Q13T	-0.038 ± 0.036
Q13K	-0.06 ± 0.039
Q13S	-0.027 ± 0.033
Q13M	-0.104 ± 0.04
Q13V	-0.067 ± 0.036
Q13H	-0.161 ± 0.07
Q13P	-0.001 ± 0.04
L6W	-0.147 ± 0.043
L6C	0.038 ± 0.053

Variant	abundance fitness
L6D	-0.366 ± 0.082
L6A	-0.124 ± 0.036
L6R	-0.123 ± 0.031
L6F	0.003 ± 0.091
L6Q	-0.083 ± 0.053
L6I	0.008 ± 0.061
L6S	-0.075 ± 0.042
L6N	-0.166 ± 0.074
L6K	-0.098 ± 0.044
L6H	0.007 ± 0.073
L6P	-0.204 ± 0.053
L6E	-0.193 ± 0.043
L6V	-0.021 ± 0.036
L6M	-0.059 ± 0.049
L6Y	-0.064 ± 0.078
L6T	-0.059 ± 0.05
L6G	-0.315 ± 0.032
L3I	0.014 ± 0.06
L3W	-0.162 ± 0.035
L3S	-0.028 ± 0.032
L3A	-0.03 ± 0.033
L3G	-0.018 ± 0.027
L3K	0.042 ± 0.038
L3H	0.035 ± 0.047
L3D	-0.024 ± 0.056
L3F	0.016 ± 0.066

Variant	abundance fitness
L3M	0.029 ± 0.041
L3P	-0.2 ± 0.037
L3Q	0.014 ± 0.037
L3V	-0.032 ± 0.031
L3E	0.038 ± 0.039
L3T	0.015 ± 0.035
L3C	-0.095 ± 0.047
L3N	0.056 ± 0.053
T5H	-0.139 ± 0.067
T5W	-0.208 ± 0.051
T5N	0.03 ± 0.066
T5C	-0.142 ± 0.058
T5A	-0.098 ± 0.043
T5S	0.02 ± 0.042
T5E	-0.092 ± 0.054
T5D	-0.024 ± 0.075
T5F	-0.217 ± 0.097
T5P	-0.033 ± 0.048
T5G	-0.121 ± 0.042
T5M	0.029 ± 0.068
T5R	-0.167 ± 0.036
T5Q	-0.088 ± 0.05
T5I	-0.169 ± 0.12
T5V	-0.088 ± 0.037
T5Y	-0.159 ± 0.057
T5L	-0.101 ± 0.039

Variant	abundance fitness
T5K	-0.024 ± 0.057
K10W	-0.446 ± 0.046
K10I	-0.185 ± 0.077
K10L	-0.239 ± 0.035
K10F	-0.372 ± 0.064
K10C	-0.192 ± 0.046
K10A	-0.108 ± 0.038
K10R	-0.107 ± 0.03
K10H	-0.14 ± 0.065
K10D	-1.29 ± 0.19
K10V	-0.073 ± 0.034
K10Q	-0.123 ± 0.042
K10E	-0.662 ± 0.053
K10P	-0.146 ± 0.045
K10S	-0.143 ± 0.037
K10G	-0.125 ± 0.032
K10T	-0.182 ± 0.042
K10M	-0.102 ± 0.047
V9T	-0.011 ± 0.052
V9A	-0.082 ± 0.035
V9Y	-0.039 ± 0.075
V9R	-0.052 ± 0.03
V9I	-0.087 ± 0.08
V9C	-0.12 ± 0.056
V9N	-0.207 ± 0.11
V9M	0.003 ± 0.053

Variant	abundance fitness
V9S	-0.102 ± 0.041
V9Q	-0.071 ± 0.05
V9L	-0.139 ± 0.039
V9K	-0.128 ± 0.049
V9F	-0.044 ± 0.064
V9H	-0.222 ± 0.083
V9D	-0.184 ± 0.065
V9P	-0.135 ± 0.06
V9W	-0.072 ± 0.037
V9G	-0.077 ± 0.027
V9E	-0.088 ± 0.035
T7S	-0.103 ± 0.037
T7N	0.044 ± 0.087
T7C	-0.027 ± 0.042
T7L	-0.075 ± 0.036
T7K	0.002 ± 0.05
T7A	-0.008 ± 0.035
T7V	-0.126 ± 0.038
T7R	-0.052 ± 0.032
T7G	-0.168 ± 0.03
T7P	-0.04 ± 0.046
T7E	-0.133 ± 0.039
T7I	-0.013 ± 0.064
T7Y	-0.121 ± 0.075
T7M	-0.083 ± 0.059
T7Q	-0.085 ± 0.048

Variant	abundance fitness
T7F	-0.017 ± 0.068
A1R	0.216 ± 0.31
A1E	-0.024 ± 0.11
A1F	-0.589 ± 0.47
A1D	-0.198 ± 0.13
A1W	-0.397 ± 0.35
A1V	0.093 ± 0.063
A1G	-0.113 ± 0.065
A1C	-0.015 ± 0.32
A12L	-0.05 ± 0.039
A12E	-0.047 ± 0.041
A12P	-0.043 ± 0.064
A12K	-0.036 ± 0.059
A12N	-0.077 ± 0.07
A12W	-0.057 ± 0.052
A12D	-0.02 ± 0.064
A12G	0.01 ± 0.032
A12M	-0.034 ± 0.052
A12H	-0.209 ± 0.075
A12C	-0.044 ± 0.056
A12Y	-0.119 ± 0.061
A12F	-0.075 ± 0.072
A12R	-0.029 ± 0.032
A12Q	-0.037 ± 0.048
A12I	-0.137 ± 0.065
A12S	-0.046 ± 0.039

Variant	abundance fitness
M4I	-0.061 ± 0.054
M4E	-0.106 ± 0.044
M4V	-0.039 ± 0.031
M4Q	-0.092 ± 0.044
M4T	-0.014 ± 0.038
M4S	-0.097 ± 0.033
M4G	-0.118 ± 0.029
M4F	0.058 ± 0.054
M4A	-0.1 ± 0.034
M4Y	-0.022 ± 0.062
M4H	-0.026 ± 0.065
M4W	-0.102 ± 0.032
M4D	-0.013 ± 0.056
M4R	-0.157 ± 0.026
M4C	-0.136 ± 0.041
M4K	-0.002 ± 0.055
M4N	-0.063 ± 0.076
M4P	-0.081 ± 0.04
M4L	-0.078 ± 0.031
